From patent US20220348934A1, “NON-RIBOSOMAL PEPTIDES AND SYNTHETASES AND METHODS OF PREPARATION AND USE THEREOF” (VICTORIA LINK LIMITED, priority 2019, published 2022)

B1: A domain from TycC6: Pro-CATTe construct with the Leu specific A domain from the sixth module of TycC substituted (protein)
chain: LAGHLQQIADCVANNPHIRLGEIDMLLPEEKQQILAGFNDTAVSYALDKTLHQLFEEQVDKTPDQAALLFSEQSLTYSELNERANRLARVLRAKGVGPDRLVAIMAERSPEMVIGILGILKAGGAYVPVDPGYPQERIQYLLEDSNAALLLSQAHLLPLLAQVSSELPECLDLNAELDAGLSGSNLPAVNQPTDLAYVIYTSGTTGKPKGVMIPHQGIVNCLQWRRDEYGFGPSDKALQVFSFAFDGFVASLFAPLLGGATCVLPQEAAAKDPVALKKLMAATEVTHYYGVPSLFQAILDCSTTTDFNQLRCVTLGGEKLPVQLVQKTKEKHPAIEINNEYGPTENSVVTTISRSIEAGQAITIGRPLANVQVYIVDEQHHLQPIGVVGELCIGGAGLARGYLNKPELTAEKFVANPFRPGERMYKTGDLVKWRTDGTIEYIGRADEQVKVRGYRIEIGEIESAVLAYQGIDQAVVVARDDDATAGSYLCAYFVAATAVSVSGLRSHLAKELPAYMIPSYFVELDQLPLSANGKVDRKALPKPQ
B2: control Pro A domain substitution strain: Pro-CATTe construct carrying the Pro specific A domain from Pro-CAT (TycB module 1), control substitution (protein)
chain: LAGHLQQIADCVANNSGVELCQIPLLTEAETSQLLAKRTETAADYPAATMHELFSRQAEKTPEQVAVVFADQHLTYRELDEKSNQLARFLRKKGIGTGSLVGTLLDRSLDMIVGILGVLKAGGAFVPIDPELPAERIAYMLTHSRVPLVVTQNHLRAKVTTPTETIDINTAVIGEESRAPIESLNQPHDLFYIIYTSGTTGQPKGVMLEHRNMANLMHFTFDQTNIAFHEKVLQYTTCSFDVCYQEIFSTLLSGGQLYLITNELRRHVEKLFAFIQEKQISILSLPVSFLKFIFNEQDYAQSFPRCVKHIITAGEQLVVTHELQKYLRQHRVFLHNHYGPSETHVVTTCTMDPGQAIPELPPIGKPISNTGIYILDEGLQLKPEGIVGELYISGANVGRGYLHQPELTAEKFLDNPYQPGERMYRTGDLALWLPDGQLEFLGRIDHQVKIRGHRIELGEIESRLLNHPAIKEAVVIDRADETGGKFLCAYVVLQKALSDEEMRAYLAQALPEYMIPSFFVTLERIPVTPNGKTDRRALPKPE
B3: A domain from SrfAC: Pro-CATTe construct with the Leu specific A domain from SrfAC substituted (protein)
chain: LAGHLQQIADCVANNPDQPVSTINLVDDREREFLLTGLNPPAQAHETKPLTYWFKEAVNANPDAPALTYSGQTLSYRELDEEANRIARRLQKHGAGKGSVVALYTKRSLELVIGILGVLKAGAAYLPVDPKLPEDRISYMLADSAAACLLTHQEMKEQAAELPYTGTTLFIDDQTRFEEQASDPATAIDPNDPAYIMYTSGTTGKPKGNITTHANIQGLVKHVDYMAFSDQDTFLSVSNYAFDAFTFDFYASMLNAARLIIADEHTLLDTERLTDLILQENVNVMFATTALFNLLTDAGEDWMKGLRCILFGGERASVPHVRKALRIMGPGKLINCYGPTEGTVFATAHVVHDLPDSISSLPIGKPISNASVYILNEQSQLQPFGAVGELCISGMGVSKGYVNRADLTKEKFIENPFKPGETLYRTGDLARWLPDGTIEYAGRIDDQVKIRGHRIELEEIEKQLQEYPGVKDAVVVADRHESGDASINAYLVNRTQLSAEDVKAHLKKQLPAYMVPQTFTFLDELPLTTNGKVNKRLLPKPD

Tested on: BAP1 strain of E. coli
Experiment: Dipeptide production by Pro-CATTe A domain substitution constructs co-expressed with Phe-ATE, quantified by HPLC
Format: cell-based
Conditions: BAP1 E. coli with Phe-ATE plasmid, grown 24 hours in 10 mL M9, absorbance at 214 nm; for D-Phe-L-Leu produced: upstream site X
Description: The Phe-ATE/Pro-CAT NRPS system originally used by Belshaw et al comprises the first two modules from the NRPS pathway involved in the biosynthesis of tyrocidine in B. brevis (Belshaw et al. 1999). This two-enzyme system was used to infer stringent acceptor site specificity of the C domain within Pro-CAT that precluded incorporation of L-Leu and L-Phe substrates (Belshaw et al. 1999). An A domain substitution plasmid was made based on pET28a containing the C domain from Pro-CAT, restriction sites to insert alternative A domains, and the T-Te domains from SrfAC (SEQ ID NO: 108). […] The Pro specific A domain from Pro-CAT and five additional A domains were selected to insert into the A domain substitution construct. The five additional domains are represented by SEQ ID NOs: 109, 111, 113, 115, 117, 119, and included the Leu specific A domain from SrfAC, three additional Leu specific A domains and a Phe specific A domain.
The DNA sequences of SEQ ID NOs: 109, 111, 113, 115, 117, 119, were digested using NheI and NotI, then ligated into the compatible SpeI and NotI restriction sites of the vector pET28:ProC-TTe (SEQ ID NO: 108). The resulting Pro-CATTe constructs were transformed into a BAP1 strain of E. coli (Pfeifer et al. 2001) along with a second plasmid containing Phe-ATE (SEQ ID NO: 121). The strains were grown for 24 hours in 10 mL of M9, extracted and analysed using established protocols (Gruenewald et al. 2004). The production of dipeptides was quantified using HPLC and absorbance at 214 nm (FIG. 13), and confirmed using mass spectrometry.

Row | Molecule | D-Phe-L-Leu produced | D-Phe-L-Pro DKP synthesised
1 | B1 | 3.06 mg/L | –
2 | B2 | – | 7.8 mg/L
3 | B3 | 1.81 mg/L | –
